The record followed here is patent publication US20250049960, “Multicomponent systems for site-specific genome modifications” (The Regents of the University of California, published 2025).

What all share (settings): tags: N-terminal FLAG (GT linker), from HEK293T
Data set [1] has as its target T1, BoMo R2 RT (Bombyx mori).
T1 chain: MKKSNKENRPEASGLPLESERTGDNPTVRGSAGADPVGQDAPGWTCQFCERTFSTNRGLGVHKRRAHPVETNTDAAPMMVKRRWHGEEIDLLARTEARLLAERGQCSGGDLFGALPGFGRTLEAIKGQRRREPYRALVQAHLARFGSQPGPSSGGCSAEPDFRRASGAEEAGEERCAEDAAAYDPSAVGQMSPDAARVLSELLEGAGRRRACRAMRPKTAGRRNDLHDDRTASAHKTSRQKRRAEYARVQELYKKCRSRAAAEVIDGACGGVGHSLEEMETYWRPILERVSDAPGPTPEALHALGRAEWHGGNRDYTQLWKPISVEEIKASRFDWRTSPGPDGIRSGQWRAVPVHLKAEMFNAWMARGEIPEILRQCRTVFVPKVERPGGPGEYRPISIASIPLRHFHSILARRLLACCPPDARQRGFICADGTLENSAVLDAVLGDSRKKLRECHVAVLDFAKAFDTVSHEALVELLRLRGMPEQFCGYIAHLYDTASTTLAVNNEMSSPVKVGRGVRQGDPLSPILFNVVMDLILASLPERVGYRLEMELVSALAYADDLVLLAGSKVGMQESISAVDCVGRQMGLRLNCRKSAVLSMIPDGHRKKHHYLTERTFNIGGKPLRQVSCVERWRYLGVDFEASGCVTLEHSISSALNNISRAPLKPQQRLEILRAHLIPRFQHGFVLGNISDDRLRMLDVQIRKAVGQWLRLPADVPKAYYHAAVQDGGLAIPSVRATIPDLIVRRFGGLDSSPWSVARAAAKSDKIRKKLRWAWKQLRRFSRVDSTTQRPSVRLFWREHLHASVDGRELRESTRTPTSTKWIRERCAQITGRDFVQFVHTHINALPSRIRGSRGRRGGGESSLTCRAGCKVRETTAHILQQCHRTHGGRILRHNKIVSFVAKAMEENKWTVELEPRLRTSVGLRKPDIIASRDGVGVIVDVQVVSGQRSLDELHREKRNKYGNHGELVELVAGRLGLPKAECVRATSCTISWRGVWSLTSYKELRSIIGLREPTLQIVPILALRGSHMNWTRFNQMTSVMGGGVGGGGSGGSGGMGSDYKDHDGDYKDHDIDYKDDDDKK
The data set can be described thus: pulldown; co-expressed in HEK293T, FLAG IP, non-cognate. The source says:
(§1) 9 populations of HEK293T cells were transfected with different combinations of plasmids comprised of one of the pcDNA3.1 backbone plasmids expressing RT protein ORFs modified from B. mori (SEQ ID NO. 35, D. simulans (SEQ ID NO. 32), and O. latipes (SEQ ID NO. 8), and an additional plasmid expressing the 3′ UTR RNA from B. mori (SEQ ID 163), D. simulans (SEQ ID NO. 164), or O. latipes (SEQ ID NO. 154) R2 elements (see FIG. 11 A). Each RT protein was co-expressed with each 3′ UTR RNA.
(§2) After allowing sufficient time for the RT protein plasmids to be transcribed and translated and to associate with the transcribed 3′ UTR RNAs, cells were lysed and any RT protein+RNA template complexes were purified by FLAG immunopurification (Sigma FLAG antibody resin). RNA present in each input cell lysate and RNA associated with each immunopurified sample was purified. Equivalent aliquots of each input RNA sample and each RT-bound RNA sample were affixed to Hybond N+membrane (Cytiva) in a grid of spots. Membranes containing spots for each type of 3′ UTR RNA were probed together for the presence of the 3′ UTR RNA, as detected by hybridization to complementary oligonucleotide probes that were ³²P 5′-end-radiolabeled using T4 polynucleotide kinase (NEB). […]

The target of data set [2] is T2, OrLa R2 RT (Oryzias latipes).
T2 chain: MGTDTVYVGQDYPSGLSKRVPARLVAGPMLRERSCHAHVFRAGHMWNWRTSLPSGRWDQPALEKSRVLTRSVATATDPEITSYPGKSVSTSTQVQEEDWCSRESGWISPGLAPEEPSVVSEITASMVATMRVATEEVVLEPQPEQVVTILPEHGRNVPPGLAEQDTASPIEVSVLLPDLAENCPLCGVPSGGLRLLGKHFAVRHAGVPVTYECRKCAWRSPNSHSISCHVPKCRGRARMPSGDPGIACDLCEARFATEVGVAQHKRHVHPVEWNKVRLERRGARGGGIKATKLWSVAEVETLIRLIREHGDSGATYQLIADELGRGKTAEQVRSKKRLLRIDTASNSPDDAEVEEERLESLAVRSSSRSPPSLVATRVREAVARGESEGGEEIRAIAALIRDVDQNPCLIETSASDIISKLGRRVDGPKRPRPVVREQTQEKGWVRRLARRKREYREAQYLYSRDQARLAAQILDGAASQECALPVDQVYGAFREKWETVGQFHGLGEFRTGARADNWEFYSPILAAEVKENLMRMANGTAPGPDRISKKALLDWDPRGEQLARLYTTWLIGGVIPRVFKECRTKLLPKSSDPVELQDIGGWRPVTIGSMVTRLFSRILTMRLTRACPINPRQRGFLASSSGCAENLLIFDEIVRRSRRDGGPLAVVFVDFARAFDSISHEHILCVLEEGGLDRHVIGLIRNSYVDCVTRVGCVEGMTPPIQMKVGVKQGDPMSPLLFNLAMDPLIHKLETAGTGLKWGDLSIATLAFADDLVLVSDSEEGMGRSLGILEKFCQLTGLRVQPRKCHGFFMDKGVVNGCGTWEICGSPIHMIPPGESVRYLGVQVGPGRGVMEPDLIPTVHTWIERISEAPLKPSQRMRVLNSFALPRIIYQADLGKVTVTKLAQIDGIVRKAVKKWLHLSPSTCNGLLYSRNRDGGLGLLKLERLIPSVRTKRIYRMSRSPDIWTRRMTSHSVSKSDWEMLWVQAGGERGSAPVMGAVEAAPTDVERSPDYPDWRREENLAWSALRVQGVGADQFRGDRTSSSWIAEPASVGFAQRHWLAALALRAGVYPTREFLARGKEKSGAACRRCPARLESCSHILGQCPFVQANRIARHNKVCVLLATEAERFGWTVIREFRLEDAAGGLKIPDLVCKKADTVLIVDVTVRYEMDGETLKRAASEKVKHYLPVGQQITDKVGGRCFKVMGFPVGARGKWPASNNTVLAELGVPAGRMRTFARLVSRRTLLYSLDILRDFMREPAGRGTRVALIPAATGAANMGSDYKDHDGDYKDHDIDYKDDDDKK
The data set can be described thus: pulldown; co-expressed in HEK293T, FLAG IP, cognate; more selective.
From the text: as §1, §2

The target in data set [3] is T1, BoMo R2 RT. The data set can be described thus: pulldown; co-expressed in HEK293T, FLAG IP, cognate.
From the text: as §1, §2

B1: O. latipes R2 3'UTR RNA (ssRNA)
RNA: UGAGGGGGACAGCUGGGAGUCUCGGCAUGAUUACAAAUCUUGCGCUGCACUCGGAUGUCGUCCCCGUGACGGACACAUUAAUCCGGAAAGCGAGUGGUGACUCGCCUCAAG
On to B1, for which the binding result in data set [1] and in data set [2] was “binds” throughout.

B2: B. mori R2 3'UTR RNA (ssRNA)
RNA: UGAGCCUUGCACAGUAGUCCAGCGGUAAGGGUGUAGAUCAGGCCCGUCUGUUUCUCCCCCGGAGCUCGCUCCCUUGGCUUCCCUUAUAUAUUUUAACAUCAGAAACAGACAUUAAACAUCUACUGAUCCAAUUUCGCCGGCGUACGGCCACGAUCGGGAGGGUGGGAAUCUCGGGGGUCUUCCGAUCCUAAUCCAUGAUGAUUACGACCUGAGUCACUAAAGACGAUGGCAUGAUGAUCCGGCGAUGAAAA
In the case of B2, the binding result in data set [3] was “binds”.

B3: D. simulans R2 3'UTR RNA (ssRNA)
RNA: UAGCUAAAACGUUUGGUUCAAAACAUUUGCUUGCUGUCUUGGCAUAACAUCAAUAAAGGCAUAAACAUCGCAAAAUAAUGGUUAUAUAUAAAUGGCUAUGAGGAUGGUUUUAGUACGUAGGCGUUGCGGAACUUCGGUUCAGAUAGAGCAAUGAAUCGUGCAUGCUAGGAAAACUGACCACACGCAGUGUUGGCAGCCCUAGUAUCUUUCGAUAGAUUUCCAUACCUCCGCGAUCAAAAAAAAAAAAAAAAAAAAAAA
In the case of B3, the binding result in data set [1] is “binds”.
